Source: a protein production outcome set (Wang et al. 2014)

Assay: label from the status in PepcDB records
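Further: failed if final PepcDB status was selected cloned or expressed and not failed if soluble or beyond.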

For “MPDPAAPGTLRPGGRTARIREAVLLAAGDALAADGFDALDLGEIARRAGVGKTTVYRRWGTPGGLAADLLADMAEQSLPRADTGALEEDLRANARLVVRTLDDPRQGRLFRALIAASLCNEQAAEALHRFYAVRVDEWAGCVRDAVARGEVPDGTDPHGVVAAVSAPLYYALLNTGRSLTEADADRAARAASTAARAGVWVTG”, the protein production was “not failed”.
With “MFLSVVTVAFRNYEGVVKTWRSLRNLARDPGLSFEWIVVDGGSEDGTREFLRKRHGEFNLRFISEKDRGIYDAMNKGIALAQGRYTLFLNSGDAFHDDAALFVRQLARQKGEAMYIGDALLDFGGGHKIRRKAKPGYYIYHSLPASHQAIFFPTAALKKYPYDLQYHVSSDYALAARLYKAGYPFRRINGLVSEFSMGGVSTSNNLELCQDAKNVQRKILRVPGFWAQLSYLLRLKTTGKTKARYNKVLEHHHHHH” the protein production was “not failed”.
For “MPGTVSPAPSLQSTTARICPSIRRPTMSRFGALRLPLAVCLAVLLTIASGPARAQPADAPLDEADYGQWERLGGATLSPEGTWMATPIRRVNGNHELRIHHTRRDTTRTVAFGRSPAFSADGQWLAYSIGMSEERRKKRRKQEKPVRRRLGLLNLATGDTTVVPAVSGFAFSDGGRYLAMRRYPPQEAPDDLRGADLLVRDLEAETYTSFGNVADMAWQHEAPHLALTIDGRTETGNGVRLYDAATGRLQTLASTPGDYTGLSWRPAEDDLAALRARDSDDWQHETHVVLAWTGVNDGAPERRQFDPATAGAFPDSLRIVDHRTPAWATERERLFFGVQKREAVAPDTAQADSAAADSLEDYGPAGVKVWHTSDVEIIPRQEVQAEQDREDNYLTAWHLGRSGEAHWTRLGTELTEDVQVLHGGARAVGLDQTPYREERMFGPVYHDLYAIDVATGEREQVAEKVQFFEGPSANGRYLLWLKNDQYHAYDLQQETTNTITADVPVPVVDVDDDHTVEQKPPFGIAGWTAGDRSVLVYSEYDVWRIAPDGSSTERLTTGRADSVRHRYVDLTDEAPGEADVIPRNEPIYWDLYDEWTEEHGYARASALTDTPERMVWKPKMMTGLTKADSADVYAYRVEDFEDSPDYFRAGPQLADARQVTSTNPFQDDYAWGRSDLVAFRNANGKKLQGALFYPADYDPDKTYPMITYIYETRSPQARSYVVPTREHPYNTTTFTQEGYIVFQPDITYRPRDPGNSAVDAIVPGVQAAAEAAAVDTSRIGLVGHSWGGYQTTFTATQTDLFATAVAGAPLTNMVSMYNSIYWRSGGTDARIFEISQGRMGVPPWEDMDAYVANSPLHHIESLNTPFLMAFGTDDGAVEFNQGVEFYNAARRADKELAFLVYDGENHGISRKEKNTVDYRNRVLEWFDHYLKGDEGPAWIQDGVPFLEQVERQEEAAVSR”, the protein production was “failed”.
In the case of “MIEIKQVKTQDEVNYTFVEKLMHTAFPQEERRDTVQQREYSDNNPRFCNNIILENGNSIGMISYWTMGDFYYIEHFAIDPSLRNGGYGKRVLEMIKKQLKGPIVLEVEEPNDEMSTRRIHFYKRLEFTLHKKPYIQPPYRKGDSGLPMLLMTYGDIDMESDFEKVKKTLYKEVYGQEI”, the protein production is reported as “not failed”.
With “MAPLPLAVIVYEPGDVLEEILAAARDRLVGLPDVRIAGLVPRLGPRHSNGRASFWLDDIVRGDSIALSQDLGPGSTSCILNADGLATARMRLAEAIAVRPDLVLFGRFAKEEIAGRGIREEIGLALAQDVPALVAVERAMLPGWIAFAAEGWTMLPADADAVVAWFVALAAERQSADTLEHHHHHH” the protein production was “failed”.
With “AGKPDWDWQPAPKNEALIAAVSAAAQEGLNAAYQIREKQARTTKLREVYAAVQAAMAEQAAQAGQPAPDSVGVDNILFDLEARIVRSQILNGEPRIDGRDTRTVRP” the protein production was “not failed”.
With “QTPVYLDTSKPIEERVKDALSRMTLEEKVKMTHAQSKFSSPGVPRLGIPEVWATDGPHGIRPEVLWDEWDQAGWTNDSCIAYPALTCLSATWNPEMSYLYGKSIGEEARYRKKDILLGPGVNIYRTPLNGRNFEYMGEDPYLSSMMVVPYIKGVQENGVAACVKHYALNNQEFNRHTTNVHLSDRALYEIYLPAFKAAVQEGGAWAIMGAYNLYSFSEDTDSGKLYKTQHACHNKRLLQDILRKEWGFDGVVVSDWGGVHDTFQAISNGLDMEFGSWTNGLSAGTRNAYDNYYLAHPYLKLIQDGTVGTKELDEKVSNILRLIFRTSMNPH” the protein production was “failed”.
In the case of “MSRQANRGTESKKMSSELFTLTYGALVTQLCKDYENDEDVNKQLDRMGYNIGVRLIEDFLARSNVGRCHDFRETADVIAKVAFKMYLGITPSITNWSPAGDEFSLILENNPLVDFVELPDNHSALIYSNLLCGVLRGALEMVQMAVEAKFVQDTLKGDGVTEIRMRFIRRIEDNLPAGEE”, the protein production is reported as “not failed”.
In the case of “NKELNELNIIKLTRMMYYGQLLHYLSIGLTLVMTYSCNLRCPYCYEGDIKSKGGLLTREKIETILTFASAHAQGDKKPTISVSFYGGEPLLNWKGCEYTLQRLEEMKENKEIRDYSAGFVTNGTLINEDIVDAINNYNVYSMQITLDGPKEIHDKRRIKSNGEGTFDQIIENIKLLNRRIANKNFHLALRINVDKTNYKKIPELLDFLKDEGLGGIPISYGIVRGNLPYCSSNCGVYFSGSDLQKYLPYLWKEAYRRGFEVWTRPNL”, the protein production is reported as “failed”.
With “MTPNAPSTFNNMLLIAVFECRKFLFNLRGMIALIAFALVWGMLLLYPIQGASTLLMQPNIKDLIDGLFGNNALNVLFDWPVAEMAIFWCFALYLFPMFSILIAADQFSSDKTRGTLRFYTIRTSKDSLLFGRFLGQILIQGLLILLTILATIALALSRDASLLLPAISSGALVGVNLLIVILPFTAVMTLLSLYASTARQAMVLATILWTVVSIALLILGNESRLFEGLQWLLPGAQLSNMINTNGLNSLAYAPIPLLQTAIALFLGRIYFQRSQL” the protein production was “failed”.
With “MTKIIPVASGKGGVGKTSFVANVGYKLSSLGKTVILVDLDLGGSNLHTCLGVKNKGVGIGSFINKKSKSFSDLVCKTSYDKLYLIPGDALYTGTANLPFSIKKKIIESIQKDLIADFIFLDLGSGTSYNTIDFYLASYSGVIVTIPETPSILNAYSFLKNALYRLLYLGFPQKSPERDYIGNFFKDKIEGTNLGFKDLVVGIELISLSSSLKVKRMMNNFYPRVVLNRIETSEEIAMCENLINVVKNNINIPIEFIGFVPFAKSFREAINNRVPFIDFEKNSKLNKYFEFIAGNLIKSP” the protein production was “failed”.
For “LSQNTLAENIYNIIISDISRKWALKDISDSLYMSCSTLKRKLKQEHTSFSEVYLNARMNKATKLLRNSEYNITRVAYMCGYDSASYFTCVFKKHFKTTPSEFLAFLSSSRHQ”, the protein production was “failed”.
With “MTKAREFLGTGWKFPVAAGADGAMVLSSAEEDIAESIRIILGTARGERVMRPDFGCGIHDRVFSVINTTTLGLIENEVKEALILWEPRIELLSVTASPREAAEGRLLIDIEYRVRSTNTRFNLVYPFYLKESA” the protein production was “not failed”.
For “MGRAMGDSFTFIFNPAADKGRAADKTALIERSLAHFEVASLETTRFAGHAAEIARAAAGEGSTLIACGGDGTLNEVVNAVAGQPVKVGVLPVGSANDFLKTFNPSAKEHEVRIRGFAGATSRKVDLGKV”, the protein production was “failed”.
With “HITLNYLSKTLGMHQTINVILPEDKSYFDTNENAKPLKTMLLLHGLSSDTSSYMRYTSIERYANTHQLAVVMPNADHSFYSNMAYGHSYYDYILEVYDYVHQILPLSKKREDNFIAGHSMGGYGAIKFALTQSYRFSKAAMLSAPYDVSMIGQYQWYDFTPEAIVGNTQHVAGTSFDPYYLVEQAIDNGQALPQLYITCGTEDELYQGNIDFVNYLDEKGIPYQFKKAPGNHDYAFWDKAIEDVIDRF” the protein production was “failed”.
In the case of “MERTLSDSQIRYIKARERRNLRGAQAFICLFLSLFVLILLQGVWLLISPRLACALLVPWAIFLWWWVFHRLKGQQSEVAARTQWLQGQFSATWVSSHRNGHFSYSFGDYPIAACCRLNNLFNEKRLDLHTRYRVEAALLTCSQTASHSYYLFGDTLVPVTRAPETDEQPGS”, the protein production is reported as “failed”.
In the case of “MARPQDPPRGFFPFGNPFKNLSSKNSVLSSKLLPLLNNFETNLASSISKLVPKEKSDILTVSWMKQAMESLCETHNGIKTLITDLELPVSDWEDKWVDVYLDISVKLLDLCNAFSSELTRLNQGHLLLQFALHNLEANSPQNLSKAQSSLDSWKQHIVSKNPRIENCRAILSSLVQTLNLPKVKNSAKGKVLMRALYGVKVKTLYISGVFAAAFSGSSQNLMYLTVSNELPWAQSFMEVQNTMNAEIKNIFLSDGLTVLKELEAVASGVKKLYPAIQQGSIDPISLQPLKDSVTELSNGIDLVSKEVDCFFKILLSGRDTLLENLRSMGASTLQATSPKKAAGKNYRGF”, the protein production is reported as “failed”.
